Data from patent US20240261333A1 (published 2024).

Experiments:
Assay in all cases: anti-FLAG co-IP from lysate of N-FLAG B3GNT2 cells, mass spectrometry
[1] = target: T1, NTPCR (human, UniProt Q9BSD7 2-190)
T1 construct: also called NP_001316381.1 (+2)
T1 sequence (looked up): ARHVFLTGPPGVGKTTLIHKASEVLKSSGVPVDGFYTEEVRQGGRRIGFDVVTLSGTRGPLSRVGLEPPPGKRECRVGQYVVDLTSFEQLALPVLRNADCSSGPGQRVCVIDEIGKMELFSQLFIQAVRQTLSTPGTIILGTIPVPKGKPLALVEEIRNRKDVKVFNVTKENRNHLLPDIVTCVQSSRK
Description: (§1) Cells were plated in 10-cm cell culture dishes and grown to 60-80% confluency. For each condition, two biological replicates were harvested for co-IP. Cells were washed with PBS and 4 mL of lysis buffer (20 mM HEPES, 1% Triton X-100, 150 mM NaCl, 1 mM EDTA, and 10% glycerol) containing protease inhibitor cocktail was added. Cells were scraped and lysate was incubated at 4° C. under rotary agitation for 1 h. Lysate was centrifuged at 14,000×g for 10 min at 4° C. Supernatant was transferred to a new tube and an aliquot was taken as the input. […] For Western blots, 10 μg/mL Chicken Anti-FLAG (Aves labs ET-DY100) and IgY control (R&D Systems AB-101-C) antibodies were biotinylated (Thermo Fisher Scientific 90407) and added to the respective conditions. Lysates with antibodies were incubated at 4° C. under rotary agitation overnight. For each mL of lysate, 50 μL of Pierce Protein A/G Magnetic Beads (Mass spectrometry; Thermo Fisher Scientific 88803) or Pierce Streptavidin Magnetic Beads (Western blot; Thermo Fisher Scientific 88817) was washed twice with lysis buffer. Lysates with antibodies were added to the beads and incubated at 4° C. under rotary agitation for 4 h. Beads were washed with lysis buffer 3 times and resuspended in lysis buffer for storage.
(§2) Magnetic beads were resuspended in 100 mM Tris pH 7.8, reduced, alkylated and digested with trypsin at 37° ° C. overnight. This solution was subjected to solid phase extraction to concentrate the peptides and remove unwanted reagents followed by injection onto a Shimadzu HPLC with fraction collector. Eight fractions were collected and after concentration were injected on a Waters NanoAcquity HPLC equipped with a self-packed Aeris 3 μm C18 analytical column 0.075 mm by 20 cm, (Phenomenex). Peptides were eluted using standard reverse-phase gradients. The effluent from the column was analyzed using a Thermo Orbitrap Elite mass spectrometer (nanospray configuration) operated in a data dependent manner for 54 minutes. The resulting fragmentation spectra were correlated against the known database using Proteome Discover 1.4 (Thermo Fisher Scientific).

[2] = target: T2, PDIA4 (human, UniProt P13667 21-645)
T2 construct: also called XP_006716248.1
T2 sequence (looked up): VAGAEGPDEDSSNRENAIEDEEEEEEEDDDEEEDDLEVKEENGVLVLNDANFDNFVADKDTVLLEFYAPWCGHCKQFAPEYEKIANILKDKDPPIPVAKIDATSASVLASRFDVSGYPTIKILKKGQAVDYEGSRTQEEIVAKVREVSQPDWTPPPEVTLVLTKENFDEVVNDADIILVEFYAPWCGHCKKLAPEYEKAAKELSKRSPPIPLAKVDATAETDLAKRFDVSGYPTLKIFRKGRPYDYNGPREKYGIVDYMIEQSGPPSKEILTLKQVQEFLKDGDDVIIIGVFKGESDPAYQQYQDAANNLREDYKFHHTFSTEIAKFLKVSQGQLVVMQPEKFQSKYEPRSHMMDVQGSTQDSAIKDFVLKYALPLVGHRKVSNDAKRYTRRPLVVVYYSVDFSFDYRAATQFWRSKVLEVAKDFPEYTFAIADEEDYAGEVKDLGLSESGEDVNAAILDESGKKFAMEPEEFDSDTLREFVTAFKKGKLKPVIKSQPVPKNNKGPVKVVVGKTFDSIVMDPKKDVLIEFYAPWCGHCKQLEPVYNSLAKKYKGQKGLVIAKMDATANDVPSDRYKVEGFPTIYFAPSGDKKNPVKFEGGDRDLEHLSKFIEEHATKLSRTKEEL
Description: as §1, §2

[3] = target: T3, DNAJA3 (human, UniProt Q96EY1-2 66-453, limits assumed)
T3 construct: also called NP_001128582.1 (+1)
T3 sequence (looked up): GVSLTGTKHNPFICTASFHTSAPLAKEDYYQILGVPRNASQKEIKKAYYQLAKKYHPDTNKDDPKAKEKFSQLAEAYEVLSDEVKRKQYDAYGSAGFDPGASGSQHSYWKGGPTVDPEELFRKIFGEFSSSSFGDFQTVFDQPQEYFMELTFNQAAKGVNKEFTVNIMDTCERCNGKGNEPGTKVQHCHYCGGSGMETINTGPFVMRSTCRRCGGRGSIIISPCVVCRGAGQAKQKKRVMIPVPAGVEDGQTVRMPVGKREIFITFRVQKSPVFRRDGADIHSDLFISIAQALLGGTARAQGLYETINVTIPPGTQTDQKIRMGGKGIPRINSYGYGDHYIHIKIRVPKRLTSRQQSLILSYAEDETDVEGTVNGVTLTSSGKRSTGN
Description: as §1, §2

[4] = target: T4, TRAFD1 (human, UniProt O14545 2-582)
T4 construct: also called NP_006691.1
T4 sequence (looked up): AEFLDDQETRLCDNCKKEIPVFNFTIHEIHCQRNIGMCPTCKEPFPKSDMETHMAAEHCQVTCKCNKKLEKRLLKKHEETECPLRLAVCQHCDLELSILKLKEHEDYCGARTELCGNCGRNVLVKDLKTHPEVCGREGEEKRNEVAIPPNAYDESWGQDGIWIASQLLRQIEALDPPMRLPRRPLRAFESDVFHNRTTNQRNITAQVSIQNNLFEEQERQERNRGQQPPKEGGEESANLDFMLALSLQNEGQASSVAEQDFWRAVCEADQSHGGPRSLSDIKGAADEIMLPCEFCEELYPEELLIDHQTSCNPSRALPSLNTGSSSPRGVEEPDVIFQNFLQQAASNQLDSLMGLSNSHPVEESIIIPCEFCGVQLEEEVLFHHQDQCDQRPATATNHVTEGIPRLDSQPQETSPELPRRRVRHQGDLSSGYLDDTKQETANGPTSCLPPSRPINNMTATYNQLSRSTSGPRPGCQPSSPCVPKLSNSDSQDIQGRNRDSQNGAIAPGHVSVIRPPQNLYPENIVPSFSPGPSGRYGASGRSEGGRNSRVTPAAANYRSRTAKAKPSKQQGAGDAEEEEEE
Description: as §1, §2

Measured: co-IP mass spectrometry count

B1: N-terminal FLAG tagged B3GNT2 (enzyme, human, UniProt Q9NY97 1-397, looked up)
chain: MSVGRRRIKLLGILMMANVFIYFIMEVSKSSSQEKNGKGEVIIPKEKFWKISTPPEAYWNREQEKLNRQYNPILSMLTNQTGEAGRLSNISHLNYCEPDLRVTSVVTGFNNLPDRFKDFLLYLRCRNYSLLIDQPDKCAKKPFLLLAIKSLTPHFARRQAIRESWGQESNAGNQTVVRVFLLGQTPPEDNHPDLSDMLKFESEKHQDILMWNYRDTFFNLSLKEVLFLRWVSTSCPDTEFVFKGDDDVFVNTHHILNYLNSLSKTKAKDLFIGDVIHNAGPHRDKKLKYYIPEVVYSGLYPPYAGGGGFLYSGHLALRLYHITDQVHLYPIDDVYTGMCLQKLGLVPEKHKGFRTFDIEEKNKNNICSYVDLMLVHSRKPQEMIDIWSQLQSAHLKC
notes: Bait of the co-IP; pulled down from cell lysate with mouse anti-FLAG antibody; also called N-FLAG B3GNT2; N-term FLAG; not shown: N-terminal FLAG tag
0: [1] | [2] | [3] | [4]
